Laboratory results: the supplement of paper PMC9428881
± gives the standard error.

Experiment: background-corrected fluorescence of 3'-dye-labeled ssDNA relative to brightest sequence (3'-GCGCG) (fraction); higher = brighter dye fluorescence (less quenching)
Summary of the method: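 Single-stranded DNA was built on glass slides by light-directed phosphoramidite synthesis, ending in a 3' Cy3 or Cy5 dye beside each of 1024 permuted pentamers. Arrays were washed in acetonitrile for 2 h at r.t., then scanned at 532 or 635 nm before and after overnight ethylenediamine/ethanol deprotection. Each value averages 10 features per array and at least 3 syntheses. Fluorescence, corrected by subtracting unlabeled-oligo background, is scaled to the brightest sequence.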

Sequence	background-corrected fluorescence (dye: Cy3 (3' terminal))	background-corrected fluorescence (dye: Cy5 (3' terminal))
TTTTTTGATGAGCAGCAGCATTTTTTTTTTTTTTTCCTTT	0.492 ± 0.016	0.347 ± 0.023
TTTTTGCATGCTCATGCTCATTTTTTTTTTTTTTTTAGAG [GAGAT]	0.591 ± 0.014	0.477 ± 0.059
TTTTTTGATCATGCGCAGCATTTTTTTTTTTTTTTCGATT [TTAGC]	0.602 ± 0.031	0.404 ± 0.025
TTTTTTGCTGCTGATGCTGCTTTTTTTTTTTTTTTAACAA	0.527 ± 0.024	0.419 ± 0.024
TTTTTTGATCATGCTGATGATTTTTTTTTTTTTTTCGACC [CCAGC]	0.4 ± 0.016	0.324 ± 0.03
TTTTTTGATGATCATGATGATTTTTTTTTTTTTTTCCGCC	0.445 ± 0.024	0.33 ± 0.022
TTTTTTGCTGCGCATGAGCATTTTTTTTTTTTTTTAATCT [TCTAA]	0.483 ± 0.036	0.338 ± 0.02
TTTTTTGCGCATCATGATCATTTTTTTTTTTTTTTATGCG [GCGTA]	0.587 ± 0.017	0.49 ± 0.035
TTTTTGCATGCTCAGCATGATTTTTTTTTTTTTTTTAGTC [CTGAT]	0.492 ± 0.026	0.363 ± 0.023
TTTTTTGCTGATCATGATGATTTTTTTTTTTTTTTACGCC [CCGCA]	0.467 ± 0.021	0.393 ± 0.027
TTTTTTCAGCATCATCATCATTTTTTTTTTTTTTTGTGGG [GGGTG]	0.717 ± 0.024	0.586 ± 0.041
TTTTTTCAGCATCATGCTGCTTTTTTTTTTTTTTTGTGAA [AAGTG]	0.607 ± 0.023	0.511 ± 0.032
TTTTTTGATCATGCTGCGCATTTTTTTTTTTTTTTCGAAT [TAAGC]	0.599 ± 0.04	0.402 ± 0.026
TTTTTGCATGATCATGATCATTTTTTTTTTTTTTTTCGCG [GCGCT]	0.93 ± 0.023	0.964 ± 0.064
TTTTTGCATCATCATCATGCTTTTTTTTTTTTTTTTGGGA [AGGGT]	0.757 ± 0.01	0.725 ± 0.054
TTTTTTCAGCATGCTGCTGCTTTTTTTTTTTTTTTGTAAA [AAATG]	0.618 ± 0.014	0.513 ± 0.028
TTTTTTGATCATCATGATCATTTTTTTTTTTTTTTCGGCG [GCGGC]	0.704 ± 0.027	0.611 ± 0.053
TTTTTTGATGATGATGCTGATTTTTTTTTTTTTTTCCCAC [CACCC]	0.373 ± 0.022	0.294 ± 0.044
TTTTTTCATGATGCGCAGCATTTTTTTTTTTTTTTGCATT [TTACG]	0.514 ± 0.018	0.395 ± 0.019
TTTTTTGCGCATGCTGCTGATTTTTTTTTTTTTTTATAAC [CAATA]	0.434 ± 0.032	0.327 ± 0.023
TTTTTTGCTCATGATGCGCATTTTTTTTTTTTTTTAGCAT [TACGA]	0.519 ± 0.039	0.405 ± 0.032
TTTTTTGATGCTGCGCATGCTTTTTTTTTTTTTTTCAATA [ATAAC]	0.574 ± 0.023	0.422 ± 0.042
TTTTTTGAGCATGAGCAGCATTTTTTTTTTTTTTTCTCTT	0.49 ± 0.0076	0.334 ± 0.024
TTTTTTGAGCATCATGCGCATTTTTTTTTTTTTTTCTGAT [TAGTC]	0.59 ± 0.02	0.455 ± 0.036
TTTTTTCATGCTCATCATGATTTTTTTTTTTTTTTGAGGC [CGGAG]	0.585 ± 0.015	0.465 ± 0.033
TTTTTTGCTGATCAGCAGCATTTTTTTTTTTTTTTACGTT [TTGCA]	0.552 ± 0.018	0.433 ± 0.029

Sequence	background-corrected fluorescence (dye: Cy3 (3' terminal))	background-corrected fluorescence (dye: Cy5 (3' terminal))
TTTTTGCAGCATGCTCATGATTTTTTTTTTTTTTTTTAGC [CGATT]	0.506 ± 0.028	0.385 ± 0.023
TTTTTTCATGCGCATGCGCATTTTTTTTTTTTTTTGATAT [TATAG]	0.532 ± 0.024	0.382 ± 0.018
TTTTTTGATCATGATGCGCATTTTTTTTTTTTTTTCGCAT [TACGC]	0.517 ± 0.0084	0.395 ± 0.021
TTTTTTGATCATGATGCTCATTTTTTTTTTTTTTTCGCAG [GACGC]	0.595 ± 0.025	0.446 ± 0.029
TTTTTTCAGCAGCATGCTGCTTTTTTTTTTTTTTTGTTAA [AATTG]	0.57 ± 0.032	0.446 ± 0.027
TTTTTGCATGCGCAGCATCATTTTTTTTTTTTTTTTATTG [GTTAT]	0.522 ± 0.018	0.359 ± 0.021
TTTTTTGAGCAGCATGATCATTTTTTTTTTTTTTTCTTCG [GCTTC]	0.477 ± 0.0068	0.384 ± 0.019
TTTTTGCATGATGCGCAGCATTTTTTTTTTTTTTTTCATT [TTACT]	0.485 ± 0.03	0.359 ± 0.028
TTTTTTGATGCTCATCAGCATTTTTTTTTTTTTTTCAGGT [TGGAC]	0.693 ± 0.045	0.534 ± 0.037
TTTTTTGATGCTGATGCGCATTTTTTTTTTTTTTTCACAT [TACAC]	0.521 ± 0.02	0.368 ± 0.016
TTTTTTGCGCATGCTGAGCATTTTTTTTTTTTTTTATACT [TCATA]	0.504 ± 0.024	0.378 ± 0.019
TTTTTTCATCATCATCATGATTTTTTTTTTTTTTTGGGGC [CGGGG]	0.631 ± 0.03	0.532 ± 0.033
TTTTTTCATGCTGCTCATCATTTTTTTTTTTTTTTGAAGG [GGAAG]	0.607 ± 0.026	0.512 ± 0.025
TTTTTTGATGCTGATCATGCTTTTTTTTTTTTTTTCACGA [AGCAC]	0.594 ± 0.013	0.471 ± 0.023
TTTTTTCATCATGCTGATCATTTTTTTTTTTTTTTGGACG [GCAGG]	0.567 ± 0.016	0.455 ± 0.019
TTTTTGCATGCTGAGCATGCTTTTTTTTTTTTTTTTACTA [ATCAT]	0.502 ± 0.027	0.388 ± 0.028
TTTTTGCATCAGCATGCTCATTTTTTTTTTTTTTTTGTAG [GATGT]	0.535 ± 0.015	0.443 ± 0.064
TTTTTGCATGAGCAGCATCATTTTTTTTTTTTTTTTCTTG [GTTCT]	0.489 ± 0.023	0.371 ± 0.032
TTTTTTCATGATGATCATGATTTTTTTTTTTTTTTGCCGC [CGCCG]	0.549 ± 0.017	0.434 ± 0.033
TTTTTTGCTCAGCATGATGCTTTTTTTTTTTTTTTAGTCA [ACTGA]	0.529 ± 0.013	0.407 ± 0.029
TTTTTTCATCATCATGCGCATTTTTTTTTTTTTTTGGGAT [TAGGG]	0.617 ± 0.027	0.506 ± 0.024
TTTTTTGAGCATGCTCATGCTTTTTTTTTTTTTTTCTAGA [AGATC]	0.608 ± 0.035	0.529 ± 0.026
TTTTTTGCGCAGCAGCAGCATTTTTTTTTTTTTTTATTTT	0.488 ± 0.022	0.381 ± 0.02
TTTTTTCATGCTCATGCGCATTTTTTTTTTTTTTTGAGAT [TAGAG]	0.578 ± 0.051	0.439 ± 0.023
TTTTTTCAGCATGCTGCGCATTTTTTTTTTTTTTTGTAAT [TAATG]	0.531 ± 0.019	0.435 ± 0.043
